Our source for the Kd values is publication PMC8945619.

This assay addresses PECAM-1 (purified, immobilised on the sensor chip) (UniProt P16284). The assay can be described thus: SPR. On the technique in general: SPR reads the build-up and loss of mass on a sensor chip optically.

Chain of recombinant proteinase 3 (rPR3) (P24158 28-248): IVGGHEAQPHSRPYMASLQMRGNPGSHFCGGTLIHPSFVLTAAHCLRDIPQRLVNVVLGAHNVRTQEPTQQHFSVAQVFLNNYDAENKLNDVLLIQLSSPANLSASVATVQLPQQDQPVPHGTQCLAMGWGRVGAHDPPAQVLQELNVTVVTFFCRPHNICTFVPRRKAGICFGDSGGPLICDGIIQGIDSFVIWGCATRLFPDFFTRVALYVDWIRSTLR
Chain of soluble CD177 in complex with proteinase 3 (sCD177/PR3) (Q8N6Q3 22-408): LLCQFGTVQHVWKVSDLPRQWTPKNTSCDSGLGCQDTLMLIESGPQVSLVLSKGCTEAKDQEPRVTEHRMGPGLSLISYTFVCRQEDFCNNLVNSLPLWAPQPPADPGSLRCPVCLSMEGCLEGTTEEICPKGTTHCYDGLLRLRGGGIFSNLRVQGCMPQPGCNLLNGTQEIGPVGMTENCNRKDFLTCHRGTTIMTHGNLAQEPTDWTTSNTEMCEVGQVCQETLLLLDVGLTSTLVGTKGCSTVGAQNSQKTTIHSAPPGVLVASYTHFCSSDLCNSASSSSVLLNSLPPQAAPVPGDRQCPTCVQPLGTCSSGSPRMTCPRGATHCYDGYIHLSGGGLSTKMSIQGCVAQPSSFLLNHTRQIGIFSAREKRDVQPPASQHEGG
Chain of soluble CD177 in complex with proteinase 3 (sCD177/PR3) (P24158 28-248): as the sequence (P24158 28-248) above

In turn, “soluble CD177 in complex with proteinase 3 (sCD177/PR3) (from UniProt Q8N6Q3 22-408; P24158 28-248)” had an equilibrium dissociation constant (Kd) of 7.39 nM. That is a single-digit nanomolar value.

“recombinant proteinase 3 (rPR3) (from UniProt P24158 28-248) (enzyme)”: the dissociation constant Kd was determined as 49.8 nM.

For orientation: Kd means the constant that tells how readily two partners part at equilibrium. Higher therefore signals lower affinity.
